In IntAct's records for PubMed 35512704:

B1: Speckle-type POZ protein (Homo sapiens), O43791 (parent)
chain: MSRVPSPPPPAEMSSGPVAESWCYTQIKVVKFSYMWTINNFSFCREEMGEVIKSSTFSSGANDKLKWCLRVNPKGLDEESKDYLSLYLLLVSCPKSEVRAKFKFSILNAKGEETKAMESQRAYRFVQGKDWGFKKFIRRDFLLDEANGLLPDDKLTLFCEVSVVQDSVNISGQNTMNMVKVPECRLADELGGLWENSRFTDCCLCVAGQEFQAHKAILAARSPVFSAMFEHEMEESKKNRVEINDVEPEVFKEMMCFIYTGKAPNLDKMADDLLAAADKYALERLKVMCEDALCSNLSVENAAEILILADLHSADQLKTQAVDFINYHASDVLETSGWKSMVVSHPHLVAEAYRSLASAQCPFLGPPRKRLKQS

Variants of: B1
Details: with brd4_human BRD4, O60885

Variant | effect of a mutation on the interaction
F133L | disrupting interaction strength

Variants of: B1
Details: with ncoa3_human NCOA3, Q9Y6Q9

Variant | effect of a mutation on the interaction
F133L | disrupting interaction strength

Variants of: B1
Details: with jun_human JUN

Variant | effect of a mutation on the interaction
F133L | with no effect

Variants of: B1
Details: with akt1_human AKT1, P31749

Variant | effect of a mutation on the interaction
F133L | with no effect

Variants of: B1
Details: with alk_human ALK

Variant | effect of a mutation on the interaction
F133L | with no effect

Variants of: B1
Details: with aph1a_human APH1A

Variant | effect of a mutation on the interaction
F133L | with no effect

Variants of: B1
Details: with arnt_human ARNT

Variant | effect of a mutation on the interaction
F133L | with no effect

Variants of: B1
Details: with arc1a_human ARPC1A

Variant | effect of a mutation on the interaction
F133L | with no effect

Variants of: B1
Details: with arrb2_human ARRB2, P32121

Variant | effect of a mutation on the interaction
F133L | with no effect

Variants of: B1
Details: with bakor_human ATG14, Q6ZNE5

Variant | effect of a mutation on the interaction
F133L | with no effect

Variants of: B1
Details: with atm_human ATM

Variant | effect of a mutation on the interaction
F133L | with no effect

Variants of: B1
Details: with atpb_human ATP5F1B

Variant | effect of a mutation on the interaction
F133L | with no effect

Variants of: B1
Details: with aurkb_human AURKB

Variant | effect of a mutation on the interaction
F133L | with no effect

Variants of: B1
Details: with axin2_human AXIN2, Q9Y2T1

Variant | effect of a mutation on the interaction
F133L | with no effect

Variants of: B1
Details: with za2g_human AZGP1, P25311

Variant | effect of a mutation on the interaction
F133L | with no effect

Variants of: B1
Details: with bap1_human BAP1, Q92560

Variant | effect of a mutation on the interaction
F133L | with no effect

Variants of: B1
Details: with bcor_human BCOR

Variant | effect of a mutation on the interaction
F133L | with no effect

Variants of: B1
Details: with brd4_human BRD4, O60885
Remark: another data set of the same source

Variant | effect of a mutation on the interaction
F133L | with no effect

Variants of: B1
Details: with baba2_human BABAM2, Q9NXR7

Variant | effect of a mutation on the interaction
F133L | with no effect

Variants of: B1
Details: with btg1_human BTG1, P62324

Variant | effect of a mutation on the interaction
F133L | with no effect

Variants of: B1
Details: with btk_human BTK

Variant | effect of a mutation on the interaction
F133L | with no effect

Variants of: B1
Details: with cblb_human CBLB

Variant | effect of a mutation on the interaction
F133L | with no effect

Variants of: B1
Details: with ccnd1_human CCND1, P24385

Variant | effect of a mutation on the interaction
F133L | with no effect

Variants of: B1
Details: with ccnd2_human CCND2, P30279

Variant | effect of a mutation on the interaction
F133L | with no effect

Variants of: B1
Details: with ccnd3_human CCND3, P30281

Variant | effect of a mutation on the interaction
F133L | with no effect

Variants of: B1
Details: with cd44_human CD44, P16070

Variant | effect of a mutation on the interaction
F133L | with no effect

Variants of: B1
Details: with cd79b_human CD79B

Variant | effect of a mutation on the interaction
F133L | with no effect

Variants of: B1
Details: with cdc27_human CDC27, P30260

Variant | effect of a mutation on the interaction
F133L | with no effect

Variants of: B1
Details: with cdc73_human CDC73, Q6P1J9

Variant | effect of a mutation on the interaction
F133L | with no effect

Variants of: B1
Details: with cdk4_human CDK4, P11802

Variant | effect of a mutation on the interaction
F133L | with no effect

Variants of: B1
Details: with cdk6_human CDK6, Q00534

Variant | effect of a mutation on the interaction
F133L | with no effect

Variants of: B1
Details: with cdn2c_human CDKN2C

Variant | effect of a mutation on the interaction
F133L | with no effect

Variants of: B1
Details: with chd1l_human CHD1L

Variant | effect of a mutation on the interaction
F133L | with no effect

Variants of: B1
Details: with chd2_human CHD2, O14647

Variant | effect of a mutation on the interaction
F133L | with no effect

Variants of: B1
Details: with chk2_human CHEK2, O96017

Variant | effect of a mutation on the interaction
F133L | with no effect

Variants of: B1
Details: with ch3l1_human CHI3L1, P36222

Variant | effect of a mutation on the interaction
F133L | with no effect

Variants of: B1
Details: with csf1r_human CSF1R

Variant | effect of a mutation on the interaction
F133L | with no effect

Variants of: B1
Details: with ctla4_human CTLA4, P16410

Variant | effect of a mutation on the interaction
F133L | with no effect

Variants of: B1
Details: with cul3_human CUL3, Q13618

Variant | effect of a mutation on the interaction
F133L | with no effect

Variants of: B1
Details: with daxx_human DAXX

Variant | effect of a mutation on the interaction
F133L | with no effect

Variants of: B1
Details: with ddx5_human DDX5, P17844

Variant | effect of a mutation on the interaction
F133L | with no effect

Variants of: B1
Details: with dll3_human DLL3, Q9NYJ7

Variant | effect of a mutation on the interaction
F133L | with no effect

Variants of: B1
Details: with duox2_human DUOX2, Q9NRD8

Variant | effect of a mutation on the interaction
F133L | with no effect

Variants of: B1
Details: with e2f2_human E2F2, Q14209

Variant | effect of a mutation on the interaction
F133L | with no effect

Variants of: B1
Details: with e2f3_human E2F3, O00716

Variant | effect of a mutation on the interaction
F133L | with no effect
